According to publication PMC5372681, “Study of Different Variants of Mo Enzyme crARC and the Interaction with Its Partners crCytb5-R and crCytb5-1” (International Journal of Molecular Sciences, 2017):
Blank lines part the entries; values can stand above or below the substance they belong to.

Tests used:
[1] = molecular target: crCytb5-R, Chlamydomonas reinhardtii NADH cytochrome b5 reductase (Chlamydomonas reinhardtii)
[2] = molecular target: crCytb5-1, Chlamydomonas reinhardtii cytochrome b5-1 (Chlamydomonas reinhardtii)
[3] = molecular target: crCytb5-1, Chlamydomonas reinhardtii cytochrome b5-1 (Chlamydomonas reinhardtii); experiment: SEC; each protein loaded alone; Superdex 200 10/300 GL, 50 mM phosphate buffer pH 7.2, 0.15 M NaCl, 0.75 mL/min; Mw from a calibration curve of marker proteins
[4] = molecular target: crCytb5-R, Chlamydomonas reinhardtii NADH cytochrome b5 reductase (Chlamydomonas reinhardtii); experiment: SEC; two proteins incubated together for 10 min, then loaded; 15 pmol of each; Superdex 200 10/300 GL, 50 mM phosphate buffer pH 7.2, 0.15 M NaCl, 0.75 mL/min; peak fractions checked by SDS-PAGE
[5] = molecular target: crARC, Chlamydomonas reinhardtii mARC (mitochondrial Amidoxime Reducing Component), wild type (Chlamydomonas reinhardtii); experiment: as above
[6] = molecular target: crARC variant F210A (Chlamydomonas reinhardtii); experiment: SEC; each protein loaded alone; Superdex 200 10/300 GL, 50 mM phosphate buffer pH 7.2, 0.15 M NaCl, 0.75 mL/min; Mw from a calibration curve of marker proteins
[7] = molecular target: crARC variant R276A (Chlamydomonas reinhardtii); experiment: as above

Substance: crCytb5-1, Chlamydomonas reinhardtii cytochrome b5-1 (natural protein)
- stoichiometry N [3]: 2
- stoichiometry N (crCytb5-1 per crCytb5-R) [4]: 4
- stoichiometry N (crCytb5-1 per crARC) [5]: 2

Substance: crARC variant F210A (enzyme)
- times more oligomeric forms than the wild type [6]: 10 times

More lines, now with the values ahead:

- NADH-dependent HAP reduction activity of the crARC variant with crCytb5-1 and crCytb5-R [1]: 25%
Substance: crARC variant E267A (enzyme; the values are: NADH-dependent HAP reduction activity (% of wild type))

- NADH-dependent HAP reduction activity of the crARC variant with crCytb5-1 and crCytb5-R (% of the wild type activity) [2]: 25
Substance: crARC variant E267A (enzyme)

- stoichiometry N [7]: 30 crARC units
Substance: crARC variant R276A (enzyme)
